Assay results reported in publication PMC8972253.

Biological target: HER2 receptor (human (endogenous in SKBR3)) (UniProt P04626)
Experiment: BLI

Kd: 1 nM
Substance: Thiomab Tras-LC-V205C
